This is an account of results in PMC6391106 (2019).

The target of assay [1] is recombinant human C3(H2O) Asn1115 (human, UniProt P01024 23-1663, D1115N). Briefly: SPR; methylamine-treated C3. On the technique in general: Surface plasmon resonance follows binding to a sensor surface in real time, without labels.
Assay [2] deals with T1, recombinant human WT C3(H2O) (human, UniProt P01024 23-1663). In words: SPR; methylamine-treated C3.
The target of assay [3] is murine C3b Asn1115 (mouse, UniProt P01027 749-1663; P01027 749-1663, D1115N). Briefly: SPR.
Assay [4] deals with T1, recombinant human WT C3(H2O). In words: SPR.

T1 sequence (P01024 23-1663): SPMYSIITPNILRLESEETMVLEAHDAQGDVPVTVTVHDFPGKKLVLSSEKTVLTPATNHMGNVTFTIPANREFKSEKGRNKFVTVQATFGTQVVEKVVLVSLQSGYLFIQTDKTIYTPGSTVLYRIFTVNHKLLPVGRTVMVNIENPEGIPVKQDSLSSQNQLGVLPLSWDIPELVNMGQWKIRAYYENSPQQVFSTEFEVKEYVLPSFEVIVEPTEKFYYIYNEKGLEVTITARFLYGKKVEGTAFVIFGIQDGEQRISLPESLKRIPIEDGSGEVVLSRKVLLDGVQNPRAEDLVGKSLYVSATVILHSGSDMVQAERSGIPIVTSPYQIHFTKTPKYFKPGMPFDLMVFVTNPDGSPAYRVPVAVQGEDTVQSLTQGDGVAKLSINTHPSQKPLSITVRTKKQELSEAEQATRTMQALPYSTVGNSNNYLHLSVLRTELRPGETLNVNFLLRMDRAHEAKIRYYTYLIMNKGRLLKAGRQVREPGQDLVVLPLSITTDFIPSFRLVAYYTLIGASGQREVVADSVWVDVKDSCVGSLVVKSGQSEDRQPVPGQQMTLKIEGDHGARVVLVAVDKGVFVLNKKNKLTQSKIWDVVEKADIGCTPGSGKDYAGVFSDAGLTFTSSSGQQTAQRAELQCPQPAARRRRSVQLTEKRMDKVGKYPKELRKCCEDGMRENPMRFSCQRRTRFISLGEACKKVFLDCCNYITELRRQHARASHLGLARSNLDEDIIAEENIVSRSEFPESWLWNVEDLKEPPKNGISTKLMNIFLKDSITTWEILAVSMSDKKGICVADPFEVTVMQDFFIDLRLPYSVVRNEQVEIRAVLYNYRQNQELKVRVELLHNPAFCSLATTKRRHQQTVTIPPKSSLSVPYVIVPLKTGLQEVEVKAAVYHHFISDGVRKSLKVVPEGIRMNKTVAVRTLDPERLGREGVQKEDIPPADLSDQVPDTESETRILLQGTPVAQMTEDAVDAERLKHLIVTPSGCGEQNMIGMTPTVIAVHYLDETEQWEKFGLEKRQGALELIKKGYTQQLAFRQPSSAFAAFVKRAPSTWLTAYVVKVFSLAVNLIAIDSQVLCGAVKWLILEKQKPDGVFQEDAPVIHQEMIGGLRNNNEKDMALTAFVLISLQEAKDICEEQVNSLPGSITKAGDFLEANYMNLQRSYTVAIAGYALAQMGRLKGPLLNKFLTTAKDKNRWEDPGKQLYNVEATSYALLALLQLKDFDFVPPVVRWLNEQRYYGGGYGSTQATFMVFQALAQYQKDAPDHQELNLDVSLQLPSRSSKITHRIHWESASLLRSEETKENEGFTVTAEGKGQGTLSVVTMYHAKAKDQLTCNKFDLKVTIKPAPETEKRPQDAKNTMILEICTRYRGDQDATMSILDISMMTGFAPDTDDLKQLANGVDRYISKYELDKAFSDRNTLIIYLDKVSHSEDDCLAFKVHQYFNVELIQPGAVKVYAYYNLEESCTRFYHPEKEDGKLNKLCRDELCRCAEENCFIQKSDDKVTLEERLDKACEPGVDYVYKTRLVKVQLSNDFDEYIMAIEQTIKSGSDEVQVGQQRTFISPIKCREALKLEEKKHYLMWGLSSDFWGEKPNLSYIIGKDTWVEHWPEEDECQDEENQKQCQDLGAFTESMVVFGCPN
recombinant human C3(H2O) Asn1115, sequence (P01024 23-1663 D1115N): as the sequence (P01024 23-1663) above, with D1093N counted along it
murine C3b Asn1115, sequence (P01027 25-666, chain 1 of 2): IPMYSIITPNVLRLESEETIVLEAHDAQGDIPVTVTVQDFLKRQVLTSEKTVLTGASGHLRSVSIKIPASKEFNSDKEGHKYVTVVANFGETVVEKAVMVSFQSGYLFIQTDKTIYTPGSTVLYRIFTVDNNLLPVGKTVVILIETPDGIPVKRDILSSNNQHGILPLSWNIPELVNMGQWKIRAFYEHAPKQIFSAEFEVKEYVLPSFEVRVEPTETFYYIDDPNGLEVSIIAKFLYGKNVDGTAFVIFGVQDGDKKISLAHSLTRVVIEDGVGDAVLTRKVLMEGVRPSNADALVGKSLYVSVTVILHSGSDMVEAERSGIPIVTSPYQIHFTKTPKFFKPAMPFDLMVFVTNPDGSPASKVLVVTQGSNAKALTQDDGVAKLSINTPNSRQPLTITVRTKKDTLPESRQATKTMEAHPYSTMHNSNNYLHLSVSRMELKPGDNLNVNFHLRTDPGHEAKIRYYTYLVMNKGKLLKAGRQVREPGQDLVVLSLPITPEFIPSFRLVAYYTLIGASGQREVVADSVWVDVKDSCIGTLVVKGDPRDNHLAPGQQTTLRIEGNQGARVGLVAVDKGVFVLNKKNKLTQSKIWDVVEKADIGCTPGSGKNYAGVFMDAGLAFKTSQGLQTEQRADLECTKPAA
murine C3b Asn1115, sequence (P01027 749-1663 D1115N, chain 2 of 2): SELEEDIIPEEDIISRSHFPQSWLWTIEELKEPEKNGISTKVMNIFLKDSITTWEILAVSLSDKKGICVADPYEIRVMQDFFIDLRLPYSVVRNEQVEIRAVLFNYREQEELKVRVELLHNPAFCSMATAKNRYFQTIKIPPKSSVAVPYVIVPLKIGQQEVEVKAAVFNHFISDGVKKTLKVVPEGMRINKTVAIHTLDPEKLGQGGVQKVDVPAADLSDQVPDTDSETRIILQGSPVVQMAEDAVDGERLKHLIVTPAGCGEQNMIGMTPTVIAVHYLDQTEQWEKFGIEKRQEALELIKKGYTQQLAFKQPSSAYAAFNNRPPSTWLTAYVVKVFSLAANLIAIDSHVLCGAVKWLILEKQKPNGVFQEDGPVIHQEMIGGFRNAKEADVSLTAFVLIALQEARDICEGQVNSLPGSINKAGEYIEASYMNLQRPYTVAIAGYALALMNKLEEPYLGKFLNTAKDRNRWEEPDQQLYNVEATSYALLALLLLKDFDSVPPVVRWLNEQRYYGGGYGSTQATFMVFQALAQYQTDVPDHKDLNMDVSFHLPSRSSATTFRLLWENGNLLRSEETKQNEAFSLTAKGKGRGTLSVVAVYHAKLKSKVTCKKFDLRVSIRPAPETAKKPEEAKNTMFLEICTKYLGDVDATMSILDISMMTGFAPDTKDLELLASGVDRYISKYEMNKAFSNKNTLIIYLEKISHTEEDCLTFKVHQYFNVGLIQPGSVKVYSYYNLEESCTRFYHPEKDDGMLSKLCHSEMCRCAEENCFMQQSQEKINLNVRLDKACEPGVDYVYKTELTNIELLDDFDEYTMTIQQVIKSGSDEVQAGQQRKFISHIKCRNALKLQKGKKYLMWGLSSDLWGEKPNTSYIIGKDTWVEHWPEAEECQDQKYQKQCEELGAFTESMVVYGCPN

B1: human FH (natural protein)
chain: EDCNELPPRRNTEILTGSWSDQTYPEGTQAIYKCRPGYRSLGNVIMVCRKGEWVALNPLRKCQKRPCGHPGDTPFGTFTLTGGNVFEYGVKAVYTCNEGYQLLGEINYRECDTDGWTNDIPICEVVKCLPVTAPENGKIVSSAMEPDREYHFGQAVRFVCNSGYKIEGDEEMHCSDDGFWSKEKPKCVEISCKSPDVINGSPISQKIIYKENERFQYKCNMGYEYSERGDAVCTESGWRPLPSCEEKSCDNPYIPNGDYSPLRIKHRTGDEITYQCRNGFYPATRGNTAKCTSTGWIPAPRCTLKPCDYPDIKHGGLYHENMRRPYFPVAVGKYYSYYCDEHFETPSGSYWDHIHCTQDGWSPAVPCLRKCYFPYLENGYNQNYGRKFVQGKSIDVACHPGYALPKAQTTVTCMENGWSPTPRCIRVKTCSKSSIDIENGFISESQYTYALKEKAKYQCKLGYVTADGETSGSITCGKDGWSAQPTCIKSCDIPVFMNARTKNDFTWFKLNDTLDYECHDGYESNTGSTTGSIVCGYNGWSDLPICYERECELPKIDVHLVPDRKKDQYKVGEVLKFSCKPGFTIVGPNSVQCYHFGLSPDLPICKEQVQSCGPPPELLNGNVKEKTKEEYGHSEVVEYYCNPRFLMKGPNKIQCVDGEWTTLPVCIVEESTCGDIPELEHGWAQLSSPPYYYGDSVEFNCSESFTMIGHRSITCIHGVWTQLPQCVAIDKLKKCKSSNLIILEEHLKNKKEFDHNSNIRYRCRGKEGWIHTVCINGRWDPEVNCSMAQIQLCPPPPQIPNSHNMTTTLNYRDGEKVSVLCQENYLIQEGEEITCKDGRWQSIPLCVEKIPCSQPPQIEHGTINSSRSSQESYAHGTKLSYTCEGGFRISEENETTCYMGKWSSPPQCEGLPCKSPPEISHGVVAHMSDSYQYGEEVTYKCFEGFGIDGPAIAKCLGEKWSHPPSCIKTDCLSLPSFENAIPMGEKKDVYKAGEQVTYTCATYYKMDGASNVTCINSRWTGRPTCRDTSCVNPPTVQNAYIVSRQMSKYPSGERVRYQCRSPYEMFGDEEVMCLNGNWTEPPQCKDSTGKCGPPPPIDNGDITSFPLSVYAPASSVEYQCQNLYQLEGNKRITCRNGQWSEPPKCLHPCVISREIMENYNIALRWTAKQKLYSRTGESVEFVCKRGYRLSSRSHTLRTTCWDGKLEYPTCAKR
For the molecule B1, the Kd in assay [1] was 6.37 µM; in assay [2] it was 3.79 µM.

B2: recombinant human FH SCRs 19–20 (domain or fragment)
chain: GKCGPPPPIDNGDITSFPLSVYAPASSVEYQCQNLYQLEGNKRITCRNGQWSEPPKCLHPCVISREIMENYNIALRWTAKQKLYSRTGESVEFVCKRGYRLSSRSHTLRTTCWDGKLEYPTCAK
modifications: C3b made from plasma-purified C3 by factor B/factor D cleavage (C3a released); beta and alpha' chains disulfide-linked; thioester (Cys1010-Gln1013) hydrolysed; N-glycosylated; amine-coupled to CM5 chip
B2: the Kd in assay [3] is greater than 17.4 µM.

B3: human membrane cofactor protein (MCP) (natural protein)
chain: CEEPPTFEAMELIGKPKPYYEIGERVDYKCKKGYFYIPPLATHTICDRNHTWLPVSDDACYRETCPYIRDPLNGQAVPANGTYEFGYQMHFICNEGYYLIGEEILYCELKGSVAIWSGKPPICEKVLCTPPPKIKNGKHTFSEVEVFEYLDAVTYSCDPAPGPDPFSLIGESTIYCGDNSVWSRAAPECKVVKCRFPVVENGKQISGFGKKFYYKATVMFECDKGFYLDGSDTIVCDSNSTWDPPVPKCLKVLPPSSTKPPALSHSVSTSSTTKSPASSASGPRPTYKPPVSNYPGYPKPEEGILDSLDVWVIAVIVIAIVVGVAVICVVPYRYLQRRKKKGTYLTDETHREVKFTSL
In the case of B3, the Kd in assay [4] is 2.1 µM.

One may read the Kd as the constant that tells how readily two partners part at equilibrium.
